Assays:
[1] = biological target: dog factor D (in dog serum) (dog); experiment: cell-based or functional assay; settings: scale: times less effective than on human factor D
[2] = biological target: human factor D (purified from human serum) (human) (UniProt P00746); experiment: cell-based or functional assay
Chain of UniProt P00746 (P00746 26-253 N180D): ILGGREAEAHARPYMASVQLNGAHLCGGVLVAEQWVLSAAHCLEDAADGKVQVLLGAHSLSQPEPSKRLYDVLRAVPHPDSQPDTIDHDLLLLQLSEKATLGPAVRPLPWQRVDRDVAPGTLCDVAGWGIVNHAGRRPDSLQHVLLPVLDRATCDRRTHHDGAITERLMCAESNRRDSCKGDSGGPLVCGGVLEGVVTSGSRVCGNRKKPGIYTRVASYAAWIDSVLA

MAb 166-32 (antibody)
neutralization of dog factor D in hemolytic assays, compared to human factor D [1]: > 10 | alternative pathway hemolytic activity of plasma from extracorporeal circuits (18 µg/ml antibody in human whole blood) (molar ratio (MAb:factor D)) [2]: 1.5 | inhibition of factor D dependent alternative pathway hemolysis of unsensitized rabbit RBCs (factor D depleted serum with supplemented factor D) [2]: 0.3 µg/mL

Source: patent US20120322975A1
